In patent US20230212587A1, “Mutant Hydroxyphenylpyruvate Dioxygenase Polypeptide, Encoding Gene Thereof and Use Therefor” (Beijing Dabeinong Biotechnology Co., Ltd., priority 2019, published 2023):
Substitutions are numbered along the chain they refer to. Numbers in names are those of the source.

B1: GsHPPD-02: native Gossypium hirsutum HPPD, SEQ ID NO: 33 (protein, listed as Gossypium hirsutum)
chain: MVQTNQSGSGNDFKLVGFSNFVRSNPKSDRFTVKRFHHIEFWCTDATNVARRFSWGLGMQFVAKSDLSTGNLTHASYLLRSRDLNFLFTAPYSPSIAVAQNLSPQSTASIPSFDHSLCRSFAATHGLGVRAIAIEVDDAETAFTTSVTHGALPFCPPTPLGDVATIAEVKLYGDVVLRYVSYTTTINSDHDFLPGFEKIEDTLSYPLDYGLRRLDHAVGNVPELGPAVSYVKSFTGFHEFAEFTAEDVGTSESGLNSVVLANNEEMVLLPMNEPVFGTKRKSQIQTYLEHNEGAGVQHLALVSEDIFKTLREMRKRSFVGGFEFMPSPPPTYYKKLKQRAGDILSDEQIKECEELGILVDRDDQGTLLQIFTKPVGDRPTIFIEIIQRIGCMVKDEEGKQYQKGGCGGFGKGNFSELFKSIEEYEKSLEAKQSQNP
modifications: GsHPPD Amino Acid Sequence
B2: GsHPPDm-F372A-02: Gossypium hirsutum HPPD mutant F372A, SEQ ID NO: 36 (protein)
chain: B1 chain with F371A
modifications: GsHPPDm-F372A Amino Acid Sequence
B3: GmHPPD-02: native Glycine max HPPD, SEQ ID NO: 75 (protein)
chain: MPMYTPSLSAPSSNHIQPSVTLPLYITTTKLNLKQQHHTTPMPIPMCNEIQAQAQAQAQPGFKLVGFKNFVRTNPKSDRFQVNRFHHIEFWCTDATNASRRFSWGLGMPIVAKSDLSTGNQIHASYLLRSGDLSFLFSAPYSPSLSAGSSAASSASIPSFDAATCLAFAAKHGFGVRAIALEVADAEAAFSASVAKGAEPASPPVLVDDRTGFAEVRLYGDVVLRYVSYKDAAPQAPHADPSRWFLPGFEAAASSSSFPELDYGIRRLDHAVGNVPELAPAVRYLKGFSGFHEFAEFTAEDVGTSESGLNSVVLANNSETVLLPLNEPVYGTKRKSQIETYLEHNEGAGVQHLALVTHDIFTTLREMRKRSFLGGFEFMPSPPPTYYANLHNRAADVLTVDQIKQCEELGILVDRDDQGTLLQIFTKPVGDRPTIFIEIIQRIGCMVEDEEGKVYQKGACGGFGKGNFSELFKSIEEYEKTLEAKRTA
modifications: Glycine max; GmHPPD Amino Acid Sequence
B4: GmHPPDm-F372A-02: Glycine max HPPD mutant F372A, SEQ ID NO: 78 (protein)
chain: B3 chain with F425A
modifications: GmHPPDm-F372A Amino Acid Sequence
B5: CaHPPD-02: native Cicer arietinum HPPD, SEQ ID NO: 81 (protein, listed as Cicer arietinum)
chain: MGTIETQTGFKLVGFNNFVRTNPKSDRFKVKRFHHVEFWCPDATNTARRFSWGLGMPIVAKSDLSTGNQTHASYLLRSGDLNFLFTAAYSPSISLSAPHPTASIPSFSAPTSFAFSASHGLGVRAVAIEVDDAEFAYTTSVNHGAIPSSPPVVLDNRVKLAEVQLYGDVVLRYVSYNDPIETSNPNPNHWFLPGFEPVEETSSNQSIDFGIQRLDHAVGNVPELSSALNYVKQFTGFHEFAEFTAEDVGTSESGLNSTVLANNEETVLLPMNEPVYGTKRKSQIQTYLEHNEGAGLQHLALMSNDIFKTLREMRKRSGIGGFEFMPSPPPTYYSNLKKRVGDVLNDEQIKECEELGILVDKDDQGTLLQIFTKPVGDRPTIFIEIIQRVGCMLKDDEGKEYQKGGCGGFGKGNFSELFKSIEEYEKTLEIKRTA
modifications: CaHPPD Amino Acid Sequence
B6: CaHPPD-F372A-02: Cicer arietinum HPPD mutant F372A, SEQ ID NO: 84 (protein)
chain: B5 chain with F371A
modifications: CaHPPDm-F372A Amino Acid Sequence

Test system: Arabidopsis thaliana T1 plants
Experiment: Topramezone tolerance of transgenic Arabidopsis thaliana T1 plants (pesticide damage grade by bleached leaf area, score, resistance evaluation)
Format: in vivo
Conditions: HPPDs from different species, 7 DAT; for Classification and statistics of pesticide damage grade Grade 0 / Classification and statistics of pesticide damage grade Grade 1 / Classification and statistics of pesticide damage grade Grade 2 / Classification and statistics of pesticide damage grade Grade 3: number of plants (of 16) in this grade; for Scores: score for pesticide damage 0-100
Method in brief: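 Herbicide tolerance was judged per plant on a bleaching scale (grade 0 no bleaching to grade 3 fully bleached) 7 DAT. Topramezone doses were 0, 25, 50 and 100 g ai/ha on 18-day-old T1 and wild-type plants.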

Molecule | Classification and statistics of pesticide damage grade Grade 0 (topramezone 25 g ai/ha (1x)) | Classification and statistics of pesticide damage grade Grade 1 (topramezone 25 g ai/ha (1x)) | Classification and statistics of pesticide damage grade Grade 2 (topramezone 25 g ai/ha (1x)) | Classification and statistics of pesticide damage grade Grade 3 (topramezone 25 g ai/ha (1x)) | Classification and statistics of pesticide damage grade Grade 0 (topramezone 100 g ai/ha (4x)) | Classification and statistics of pesticide damage grade Grade 1 (topramezone 100 g ai/ha (4x)) | Classification and statistics of pesticide damage grade Grade 2 (topramezone 100 g ai/ha (4x)) | Classification and statistics of pesticide damage grade Grade 3 (topramezone 100 g ai/ha (4x)) | Scores (topramezone 25 g ai/ha (1x)) | Scores (topramezone 100 g ai/ha (4x)) | Resistance evaluation (topramezone 25 g ai/ha (1x)) | Resistance evaluation (topramezone 100 g ai/ha (4x))
B1 | 0 | 0 | 0 | 16 | 0 | 0 | 0 | 16 | 100 | 100 | non-resistant (non-resistant plants (scores 68-100)) | non-resistant (non-resistant plants (scores 68-100))
B2 | 16 | 0 | 0 | 0 | 0 | 0 | 0 | 16 | 0 | 100 | highly resistant (highly resistant plants (scores 0-15)) | non-resistant (non-resistant plants (scores 68-100))
B3 | 0 | 0 | 0 | 16 | 0 | 0 | 0 | 16 | 100 | 100 | non-resistant (non-resistant plants (scores 68-100)) | non-resistant (non-resistant plants (scores 68-100))
B4 | 0 | 12 | 4 | 0 | 0 | 0 | 0 | 16 | 42 | 100 | poorly resistant (poorly resistant plants (scores 34-67)) | non-resistant (non-resistant plants (scores 68-100))
B5 | 0 | 0 | 0 | 16 | 0 | 0 | 0 | 16 | 100 | 100 | non-resistant (non-resistant plants (scores 68-100)) | non-resistant (non-resistant plants (scores 68-100))
B6 | 0 | 13 | 3 | 0 | 0 | 0 | 0 | 16 | 40 | 100 | poorly resistant (poorly resistant plants (scores 34-67)) | non-resistant (non-resistant plants (scores 68-100))
